In assay [1] the target is T1, SARS-CoV-2-S1-his protein (SARS-CoV-2, UniProt P0DTC2 16-685).
In assay [2] the target is T2, SARS-CoV-2 S full-length protein on pseudovirus (SARS-CoV-2, UniProt P0DTC2 14-1273). As to the kind of experiment: cell-based or functional assay.
Assay [3] addresses CD16a-AVI-His(V158)+BirA protein (UniProt P08637 17-208). In words: ELISA, biotinylated CD16a captured on avidin, titrated antibody.
For assay [4], the target named is T3, CD32a-AVI-His(R131)+BirA protein (UniProt P12318 36-218).
T3 sequence: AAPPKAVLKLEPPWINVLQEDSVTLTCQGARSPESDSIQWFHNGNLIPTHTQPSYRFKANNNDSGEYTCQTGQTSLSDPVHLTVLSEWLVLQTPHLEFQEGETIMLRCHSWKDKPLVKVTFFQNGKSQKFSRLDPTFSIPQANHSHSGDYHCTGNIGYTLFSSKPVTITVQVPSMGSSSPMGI
As to the kind of experiment: ELISA, biotinylated CD32a captured on avidin, titrated antibody.

Assay [5] deals with T4, CD32b-AVI-HIS+BirA protein (UniProt P31994 43-217).
T4 sequence: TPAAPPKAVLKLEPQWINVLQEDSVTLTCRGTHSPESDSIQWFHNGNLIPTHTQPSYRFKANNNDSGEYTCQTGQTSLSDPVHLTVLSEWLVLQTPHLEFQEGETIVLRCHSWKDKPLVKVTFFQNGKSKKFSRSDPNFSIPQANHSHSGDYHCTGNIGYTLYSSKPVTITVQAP
As to the kind of experiment: ELISA, biotinylated CD32b captured on avidin, titrated antibody.

Assay [6] deals with T1, SARS-CoV-2-S1-his protein. In words: ELISA, S1 protein coated at varied concentration, antibody at 1 ug/mL.
Assay [7] concerns the target T1, SARS-CoV-2-S1-his protein. As to the kind of experiment: BLI (OctetRED96e), biotinylated S1 on SA sensor, antibody in solution.
Assay [8] has as its target T5, SARS-CoV-2 ECD protein (SARS-CoV-2, UniProt P0DTC2 14-1213).
T5 construct: extracellular domain
In words: ELISA, ECD protein coated at varied concentration, antibody at 1 ug/mL.

Assay [9] concerns the target T6, SARS-CoV-2 RBD protein (SARS-CoV-2, UniProt P0DTC2 319-541).
T6 construct: domain: RBD
As to the kind of experiment: ELISA, RBD protein coated at varied concentration, antibody at 1 ug/mL.

Assay [10] concerns the target T6, SARS-CoV-2 RBD protein. In words: BLI (OctetRED96e), biotinylated RBD on SA sensor, antibody in solution.
Assay [11] deals with CD64-AVI-His+BirA protein (UniProt P12314 16-288). In words: ELISA, biotinylated CD64 captured on avidin, titrated antibody.
Assay [12] deals with T1, SARS-CoV-2-S1-his protein. The source holds these as a separate data set.
Assay [13] has as its target T6, SARS-CoV-2 RBD protein.
Assay [14] addresses T2, SARS-CoV-2 S full-length protein on …. In words: cell-based or functional assay. This is another data set of the same source.
Assay [15] deals with T7, SARS-CoV-2 S1 protein on HF-nCoV-SPIKE-8D3 cells (SARS-CoV-2, UniProt P0DTC2 14-1273).
T7 construct: whole, on cells
In words: flow cytometry on HF-nCoV-SPIKE-8D3 cells, titrated antibody.

For assay [16], the target named is T1, SARS-CoV-2-S1-his protein. As to the kind of experiment: ELISA, S1 protein coated at varied concentration, antibody at 1 ug/mL. The source holds these as a separate data set.
Assay [17] concerns the target T5, SARS-CoV-2 ECD protein. As to the kind of experiment: ELISA, ECD protein coated at varied concentration, antibody at 1 ug/mL. This is another data set of the same source.

Where two headings read alike, the source gives them in different places.

Chain of CD16a-AVI-His(V158)+BirA protein (P08637 17-208 F176V limits assumed): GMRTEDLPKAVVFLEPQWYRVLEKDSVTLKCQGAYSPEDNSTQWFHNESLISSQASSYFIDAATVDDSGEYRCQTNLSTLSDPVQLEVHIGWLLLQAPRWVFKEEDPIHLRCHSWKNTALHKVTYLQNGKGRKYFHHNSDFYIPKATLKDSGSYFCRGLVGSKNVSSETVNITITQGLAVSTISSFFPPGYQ
Chain of CD64-AVI-His+BirA protein (P12314 16-288 limits assumed): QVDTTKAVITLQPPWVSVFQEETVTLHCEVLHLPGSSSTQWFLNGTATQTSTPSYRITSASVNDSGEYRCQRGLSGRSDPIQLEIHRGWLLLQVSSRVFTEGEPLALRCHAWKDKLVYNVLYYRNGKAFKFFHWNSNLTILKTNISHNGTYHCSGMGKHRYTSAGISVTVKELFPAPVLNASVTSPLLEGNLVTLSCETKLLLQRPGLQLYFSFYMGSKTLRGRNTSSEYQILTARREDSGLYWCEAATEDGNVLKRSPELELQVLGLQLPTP

B1: humanized antibody CoV2-HB27 (antibody)
heavy: not shown
light: EIVLTQSPATLSLSPGERATLSCRASESVDNYGISFMNWFQQKPGQAPRLLIYAASNQGSGVPARFSGSGSGTDFSLTISSLEPEDFAVYFCQQSKEVPRTFGQGTKVEIKRTVAAPSVFIFPPSDEQLKSGTASVVCLLNNFYPREAKVQWKVDNALQSGNSQESVTEQDSKDSTYSLSSTLTLSKADYEKHKVYACEVTHQGLSSPVTKSFNRGEC
notes: also called IgG1 subtype CoV2-HB27 antibody; CoV2-HB27-IgG1
Regarding B1, the half-maximal effective concentration (EC50) in assay [1] was 0.179 µg/mL; in assay [6], 0.183 µg/mL; with SARS-CoV-2 ECD protein [8], 0.972 µg/mL; with SARS-CoV-2 RBD protein [9], 0.0222 µg/mL. Also, in [2], the “neutralization IC50, SARS-CoV-2 pseudovirus on 293FT-ACE2 cells (luciferase)” value was 0.0059 µg/mL. For the same molecule, the binding result in assay [3], in [4] and in assay [5] was “binds” each time. The Kd in assay [7] is 370 pM; in the assay with SARS-CoV-2 RBD protein [10], 39 pM. For the same molecule, the koff in [7] was determined as 0.00039 s⁻¹; with SARS-CoV-2 RBD protein [10], 1.4e-05 s⁻¹. Besides, the values for the kon (in [7]; with SARS-CoV-2 RBD protein [10]) were 1.1e+06 M⁻¹ s⁻¹ and 370000 M⁻¹ s⁻¹, respectively.

B2: CoV2-HB27-Ae0-IgG1 (antibody)
heavy: not shown
light: B1 light
notes: also called Ae0-IgG1 form antibody; defucosylated IgG1 subtype CoV2-HB27
With B2, the binding result in assay [3], in [4] and in assay [5] was “binds” each time.

B3: CoV2-HB27-Fd6-IgG1 (antibody)
heavy: not shown
light: B1 light
notes: also called Fd6-IgG1 form antibody; reduced Fc function IgG1 subtype humanized antibody
B3: the binding result in assay [11] is on record as “binds”; in assay [4], “no binding”; in [5], “no binding”.

B4: human-mouse chimeric antibody CoV2-mhB27 (antibody, V domains shown)
VH: EVKLVESGGGLVKPGGSLKLSCAASGFTFSNYGMSWVRQSPEKRLEWVAEISSGGSYTYYPDTVTGRFTISRDNAKNTLYLEMSSLRSEDTAMYYCARFRYDGGGGTVDYWGQGTSVTVSS
VL: not shown
notes: also called murine antibody CoV2-mhB27
Take B4: the EC50 in [12] worked out at 0.024 µg/mL; with SARS-CoV-2 RBD protein [13] it was 0.044 µg/mL; in assay [15], 2.77 µg/mL; in assay [16] it was 0.116 µg/mL; in the assay with SARS-CoV-2 ECD protein [17], 0.307 µg/mL. Moreover, the “neutralization IC50, SARS-CoV-2 pseudovirus on 293FT-ACE2 cells (luciferase)” value in [14] amounted to 0.0087 µg/mL.
